Test results published in patent US20170334973A1 (INTEGRATED BIOTHERAPEUTICS, published 2017).
Changes are numbered by the printed parent chain.

B1: FVM29 (antibody, V domains shown)
VH: EVQLVQSGAEVKRPGESLKISCQTSGNSFTNNWISWVRQMPGKGLEWMGAIDPSDSETRYSPSFQGQVTISADKSINTAYLQWSSLKASDTATYYCVKGSETWGQGVLVTVSS
VL: QPVLTQPASLSASPGASASLTCTFSGGINVAGYNILWYQQKAGSPPRYLLRYKSDSTKDQGSGVPSRFSGSKDASANTGILRISGLQSEDEADYYCAIGHSSGWIFGGGTRLTVL
B2: FVM13 (antibody, V domains shown)
VH: EVQLVQSGAEVKRPGESLKISCKTSGYTFTSSWISWVRQMPGKGLEWLGSIYPGDSDTRYNPSFQGHVTISADTSIITTHLQWSSLKASDTATYYCVKGSETWGQGVLVTVSS
VL: B1 VL with Q1K, V3M, A8T
B3: FVM08 (antibody, V domains shown)
VH: EVQLVQSGAEVKRPGESLTISCKTSGYSFTDSWVAWVRQMPGKGLEWMGSIYPGDSDTRYNPSFEGQVTISADKSISTTYLQWSSLRASDTATYYCVKGADDWGQGVLVTVSS
VL: B1 VL
B4: FVM10 (antibody, V domains shown)
VH: QVQLVQSGAEVKRPGESLKISCQTSGYSFTDSWVAWVRQMPGKGLEWLGSIYPGDSETKYNPSFQGHVTISADKSISTAYLQWSSLKASDTATYYCAKGSETWGQGLRVTVSS
VL: B1 VL with P2A, V3G, A42P, T57D
B5: FVM39 (antibody, V domains shown)
VH: B2 VH with K19R, T28S, S31D, D57E, R59K, T74K, I76V, I77T, H80Y, Q82K
VL: B1 VL
B6: FVM07 (antibody, V domains shown)
VH: EVQLVQSGAEVKRPGESLTISCKTSGYSFTDSWIGWVRQMPGKGLEWMGSIYPGDSDTKYNPSFQGHVTISADKSISTTYLQWSSLKASDTATYYCVAREAYWGQGVLVTVSS
VL: B1 VL with N34H, L36F, A42P, T57D, D59G, W104V, I105L
B7: FVM12 (antibody, V domains shown)
VH: EVQLVQSGAEVKRPGESLTISCKTSEYSFTGSWISWVRQMPGKGLEWMGSIYPGDSDTRYSPSFQGQVTISADKSVTTTYLKWSSLKASDTATYYCVKGSETWGQGVLVTVSS
VL: B1 VL with P14L, A42P, Y48F, T57D, K58N, D59V, R67H, A76T, I105V
B8: FVM22 (antibody, V domains shown)
VH: B4 VH with Q1E, K19T, Q23K, L107V, R108L
VL: B1 VL with Q1S, P2S, V3G
B9: FVM16 (antibody, V domains shown)
VH: EVQLVQSGAEVKRPGESLKISCRTSGYSFTSTWINWVRQMPGKGLEWLGSIYPGDSETKYNPSFQGHVTISADKSVTTTYLKWSSLKASDTATYYCVKGSETWGQGVLVTVSS
VL: B1 VL with Q1K, V3M, I105V
B10: FVM40 (antibody, V domains shown)
VH: B9 VH with K19T, R23K, S31D, T32S, N35S, L48M
VL: B1 VL with V3M
B11: FVM11 (antibody, V domains shown)
VH: B9 VH with K19T, R23K, S31D, T32S, I34V, N35A
VL: B1 VL with Q1N, P2F, V3M
B12: FVM26 (antibody, V domains shown)
VH: B9 VH with E1Q, K19R, R23K, S28T, S31D, T32Y, N35A, L48M, S85R
VL: B1 VL
B13: FVM14 (antibody, V domains shown)
VH: B9 VH with R23Q, N35T, V76I, T77S, K82Q, S84N
VL: B1 VL with P2A, L4V
B14: FVM41 (antibody, V domains shown)
VH: B9 VH with R23K, S31D, N35S, L48M
VL: B1 VL with Q1E, P2T, L4V, W104V, I105L
B15: FVM31 (antibody, V domains shown)
VH: B7 VH with E1Q, E26G, G31D, I34V, S35A, M48L, T58A, S61N, Q67H, K74T
VL: B1 VL with Q1K, V3M
B16: FVM15 (antibody, V domains shown)
VH: B9 VH with E1Q, K19R, R23K, S28T, S31D, T32Y, N35A, L48M, S85R
VL: B1 VL
B17: FVM33 (antibody, V domains shown)
VH: B9 VH with E1Q, R23K, G26R, T32S, N35G, E57D, K59R
VL: B1 VL
B18: FVM38 (antibody, V domains shown)
VH: B9 VH with E1Q, K19T, R23K, S31D, T32S, N35G, L48M, G49A, G54D
VL: B1 VL
B19: FVM27 (antibody, V domains shown)
VH: B1 VH with Q23K, N27Y, T30A, N31S, N32S, E57A, N77S
VL: B1 VL with T113I
B20: FVM06 (antibody, V domains shown)
VH: B1 VH with K19T, Q23K, N27Y, N32Y, K43E, E57D, I70M, N77T
VL: B1 VL
B21: FVM34 (antibody, V domains shown)
VH: B9 VH with Q6E, K19T, R23K, S31D, T32S, I34V, N35S, L48M
VL: B1 VL with N34Y, L36H, A42P, T57D, D59H, I105V
B22: FVM37 (antibody, V domains shown)
VH: B9 VH with E1Q, R23K, S28R, T32S, N35S
VL: B1 VL with Q1S, P2S, V3E
B23: FVM35 (antibody, V domains shown)
VH: B9 VH with K19T, R23K, T32Y, N35T
VL: B1 VL
B24: FVM18 (antibody, V domains shown)
VH: B9 VH with E1Q, R23K, S31N, T32I, N35S
VL: NFMLTQPASLSASPGASASLTCTFSGGINVAGYHILWYQQKPGSPPRYLLRYKSDSEKDQGSGVPSRFSGSKDASANRGILRISGLQSEDEADYYCAIGHSSSGWVFGGGTRLTVL
B25: FVM01P (antibody, V domains shown)
VH: QVQLQESGPGLVKPSETLSLTCTVSGASISNYRWNWIRQPPGKGLEWIGEINGYSGSTNYNPSLKSRVTISKDASKNQFSLKLTSVTAADTAVYYCPIIGGFTLEWFDVWGPGVLVTVSS
VL: DVVLTQSPSSLSASVGDRVTITCRASQGIRNYLNWYQQKPRKAPKLLIYAASSLQSGVPSRFSGSGSGTEFTLTISSLQAEDFATYYCLQGYRTPFTFGPGTKLDIKR
B26: FVM05 (antibody, V domains shown)
VH: QVQLQESGPGLVKPSETLSLTCAVSGFSISSGYGWSWIRQPPGKGLEWIGYIGGSSGSTSYNPSLKSRVTLSADTSKNQFSLKLSSVTAADTAVYYCARRYSSYRSWFDVWGPGVLVTVSS
VL: SSGLTQPRSVSVSPGQTARITCGGDNIGSKSVHWYQQKPPQAPVLVIYADSERPSGIPERFSGSNSGNTATLTISGVEAGDEADYYCQVWDSSSDHWVFGGGTRLTVL
B27: FVM42 (antibody, V domains shown)
VH: B9 VH with Q6E, K19T, R23K, S31D, T32S, I34V, N35A, L48M
VL: B1 VL with P2T, L4V
B28: FVM36 (antibody, V domains shown)
VH: B9 VH with K19T, R23K, S31D, T32N, N35S, L48M
VL: B1 VL with P2S

The binders below were run against SUDV GPddmuc (Sudan virus (SUDV), UniProt Q66814 33-650) (assay: ELISA).

Binder	EC50
B1	12.8 nM
B2	0.051 nM
B3	0.048 nM
B4	0.082 nM
B5	0.02 nM
B6	0.491 nM
B7	0.081 nM
B8	0.6 nM
B9	0.059 nM
B10	0.033 nM
B11	0.053 nM
B12	0.08 nM
B13	0.077 nM
B14	0.053 nM
B15	0.093 nM
B16	0.035 nM
B17	0.04 nM
B18	0.053 nM
B19	0.04 nM
B20	0.05 nM
B21	0.027 nM
B22	0.033 nM
B23	0.033 nM
B24	0.108 nM
B25	0.047 nM

Each binder was assayed against EBOV GPddmuc (Ebola virus (EBOV), UniProt Q05320 33-650) (assay: ELISA).

Binder	EC50
B2	0.062 nM
B3	0.461 nM
B4	0.079 nM
B5	0.027 nM
B6	0.119 nM
B7	0.091 nM
B8	0.067 nM
B9	0.066 nM
B10	0.04 nM
B11	0.059 nM
B12	0.1 nM
B13	0.086 nM
B14	0.047 nM
B15	0.107 nM
B16	0.042 nM
B17	0.04 nM
B18	0.06 nM
B19	0.047 nM
B20	0.059 nM
B21	0.027 nM
B22	0.047 nM
B23	0.033 nM
B24	0.101 nM
B25	0.057 nM
B26	2.67 nM

What follows are binders tested against MARV GPddmuc (Marburg virus (MARV), UniProt P35253 19-648) (assay: native ELISA).

Binder	binding result
B1	no binding
B2	no binding
B3	no binding
B4	no binding
B5	no binding
B6	no binding
B7	no binding
B27	no binding
B8	no binding
B28	no binding
B9	no binding
B10	no binding
B11	no binding
B12	no binding
B13	no binding
B14	no binding
B15	no binding
B16	no binding
B17	no binding
B18	no binding
B19	no binding
B20	no binding
B21	no binding
B22	no binding
B23	no binding
B24	no binding
B25	no binding
B26	no binding
